Experimental data taken from US20230212319A1, “NOVEL ANTIGEN BINDING DOMAINS AND SYNTHETIC ANTIGEN RECEPTORS INCORPORATING THE SAME” (University of Southern California, priority 2020, published 2023).

B1: 22119 (protein)
chain: MALPVTALLLPLALLLHAARPDIQMTQSPSSLSASVGDRVTITCKASDHINNWLAWYQQKPGQAPKLLIYGATTLETGVPSRFSGSGSGTDYTLTISSLQPEDFATYYCQQSWNTPWTFGQGTKLEIKRLEADVSPKPTIFLPSIAETKLQKAGTYLCLLEKFFPDVIKIHWQEKKSNTILGSQEGNTMKTNDTYMKFSWLTVPEKSLDKEHRCIVRHENNKNGVDQEIIFPPIKTDVITMDPKDNCSKDANDTLLLQLTNTSAYYMYLLLLLKSVVYFAIITCCLLRRTAFCCNGEKSRAKRSGSGATNFSLLKQAGDVEENPGPTSATMDWIWRILFLVGAATGAHSGPQVQLQESGGGLAQAGGSLRLSCAASGRTFSMGWFRQAPGKEREFVAAITYSGGSPYYASSVRGRFTISRDNAKNTVYLQMNSLKPEDTAVYYCAANPTYGSDWNAENWGQGTQVTVSSGSGGGGSGGGGSGGGGSFEQVQLQQPGAELVKPGASVKMSCKASGYAFSSYWINWMKQKPGQGLEWIGQIYPGDGDTNYNGKFKGRATLTADTSSSTAYMQLSSLTSEDSAVYFCARSITTVVGCAMDYWGQGTSVTVSSTRPHTKPSVFVMKNGTNVACLVKEFYPKDIRINLVSSKKITEFDPAIVISPSGKYNAVKLGKYEDSNSVTCSVQHDNKTVHSTDFEVKTDSTDHVKPKETENTKQPSKSCHKPKAIVHTEKVNMMSLTVLGLRMLFAKTVAVNFLLTAKLFFLRAKRSGSGVKQTLNFDLLKLAGDVESNPGPSRGHMTEYKPTVRLATRDDVPRAVRTLAAAFADYPATRHTVDPDRHIERVTELQELFLTRVGLDIGKVWVADDGAAVAVWTTPESVEAGAVFAEIGPRMAELSGSRLAAQQQMEGLLAPHRPKEPAWFLATVGVSPDHQGKGLGSAVVLPGVEAAERAGVPAFLETSAPRNLPFYERLGFTVTADVEVPEGPRTWCMTRKPGA
B2: 22110 (protein)
chain: MALPVTALLLPLALLLHAARPQLQLQESGPGLVKPSETLSLTCTVSGDSISSGDYYWGWIRQPPGKGLEWIGHIYYSGVTYYNPSLKSRVTISVDTSRNQFSLKLSSVTAADTAVYYCTREDSSNWRSRGQGTLVTVSSGTGGGGSGGGGSGGGGSEFDIQMTQSPSSLSASVGDRVTITCKASDHINNWLAWYQQKPGQAPKLLIYGATTLETGVPSRFSGSGSGTDYTLTISSLQPEDFATYYCQQSWNTPWTFGQGTKLEIKRLEDLKNVFPPEVAVFEPSEAEISHTQKATLVCLATGFYPDHVELSWWVNGKEVHSGVCTDPQPLKEQPALNDSRYCLSSRLRVSATFWQNPRNHFRCQVQFYGLSENDEWTQDRAKPVTQIVSAEAWGRADCGFTSESYQQGVLSATILYEILLGKATLYAVLVSALVLMAMVKRKDSRGRAKRSGSGATNFSLLKQAGDVEENPGPTSMDWIWRILFLVGAATGAHSFEQVQLQQPGAELVKPGASVKMSCKASGYAFSSYWINWMKQKPGQGLEWIGQIYPGDGDTNYNGKFKGRATLTADTSSSTAYMQLSSLTSEDSAVYFCARSITTVVGCAMDYWGQGTSVTVSSTRIQNPDPAVYQLRDSKSSDKSVCLFTDFDSQTNVSQSKDSDVYITDKCVLDMRSMDFKSNSAVAWSNKSDFACANAFNNSIIPEDTFFPSPESSCDVKLVEKSFETDTNLNFQNLSVIGFRILLLKVAGFNLLMTLRLWSSRAKRSGSGVKQTLNFDLLKLAGDVESNPGPSRGHMTEYKPTVRLATRDDVPRAVRTLAAAFADYPATRHTVDPDRHIERVTELQELFLTRVGLDIGKVWVADDGAAVAVWTTPESVEAGAVFAEIGPRMAELSGSRLAAQQQMEGLLAPHRPKEPAWFLATVGVSPDHQGKGLGSAVVLPGVEAAERAGVPAFLETSAPRNLPFYERLGFTVTADVEVPEGPRTWCMTRKPGA
B3: 22107 (protein)
chain: MALPVTALLLPLALLLHAARPDIQMTQSPSSLSASVGDRVTITCKASDHINNWLAWYQQKPGQAPKLLIYGATTLETGVPSRFSGSGSGTDYTLTISSLQPEDFATYYCQQSWNTPWTFGQGTKLEIKRLEIQNPDPAVYQLRDSKSSDKSVCLFTDFDSQTNVSQSKDSDVYITDKCVLDMRSMDFKSNSAVAWSNKSDFACANAFNNSIIPEDTFFPSSDVPCDVKLVEKSFETDTNLNFQNLSVIGFRILLLKVAGFNLLMTLRLWSSRAKRSGSGVKQTLNFDLLKLAGDVESNPGPTSATMDWIWRILFLVGAATGAHSGPQVQLQESGGGLAQAGGSLRLSCAASGRTFSMGWFRQAPGKEREFVAAITYSGGSPYYASSVRGRFTISRDNAKNTVYLQMNSLKPEDTAVYYCAANPTYGSDWNAENWGQGTQVTVSSGSGGGGSGGGGSGGGGSFEQVQLQQPGAELVKPGASVKMSCKASGYAFSSYWINWMKQKPGQGLEWIGQIYPGDGDTNYNGKFKGRATLTADTSSSTAYMQLSSLTSEDSAVYFCARSITTVVGCAMDYWGQGTSVTVSSTREDLKNVFPPEVAVFEPSKAEIAHTQKATLVCLATGFYPDHVELSWWVNGKEVHSGVCTDPQPLKEQPALNDSRYCLSSRLRVSATFWQNPRNHFRCQVQFYGLSENDEWTQDRAKPVTQIVSAEAWGRADCGITSASYHQGVLSATILYEILLGKATLYAVLVSALVLMAMVKRKDSRGRAKRSGSGATNFSLLKQAGDVEENPGPSRGHMTEYKPTVRLATRDDVPRAVRTLAAAFADYPATRHTVDPDRHIERVTELQELFLTRVGLDIGKVWVADDGAAVAVWTTPESVEAGAVFAEIGPRMAELSGSRLAAQQQMEGLLAPHRPKEPAWFLATVGVSPDHQGKGLGSAVVLPGVEAAERAGVPAFLETSAPRNLPFYERLGFTVTADVEVPEGPRTWCMTRKPGA
B4: 22104 (protein)
chain: MALPVTALLLPLALLLHAARPDIQMTQSPSSLSASVGDRVTITCKASDHINNWLAWYQQKPGQAPKLLIYGATTLETGVPSRFSGSGSGTDYTLTISSLQPEDFATYYCQQSWNTPWTFGQGTKLEIKRLEDLKNVFPPEVAVFEPSEAEISHTQKATLVCLATGFYPDHVELSWWVNGKEVHSGVCTDPQPLKEQPALNDSRYCLSSRLRVSATFWQNPRNHFRCQVQFYGLSENDEWTQDRAKPVTQIVSAEAWGRADCGFTSESYQQGVLSATILYEILLGKATLYAVLVSALVLMAMVKRKDSRGRAKRSGSGATNFSLLKQAGDVEENPGPTSATMDWIWRILFLVGAATGAHSGPQVQLQESGGGLAQAGGSLRLSCAASGRTFSMGWFRQAPGKEREFVAAITYSGGSPYYASSVRGRFTISRDNAKNTVYLQMNSLKPEDTAVYYCAANPTYGSDWNAENWGQGTQVTVSSGSGGGGSGGGGSGGGGSFEQVQLQQPGAELVKPGASVKMSCKASGYAFSSYWINWMKQKPGQGLEWIGQIYPGDGDTNYNGKFKGRATLTADTSSSTAYMQLSSLTSEDSAVYFCARSITTVVGCAMDYWGQGTSVTVSSTRIQNPDPAVYQLRDSKSSDKSVCLFTDFDSQTNVSQSKDSDVYITDKCVLDMRSMDFKSNSAVAWSNKSDFACANAFNNSIIPEDTFFPSPESSCDVKLVEKSFETDTNLNFQNLSVIGFRILLLKVAGFNLLMTLRLWSSRAKRSGSGVKQTLNFDLLKLAGDVESNPGPSRGHMTEYKPTVRLATRDDVPRAVRTLAAAFADYPATRHTVDPDRHIERVTELQELFLTRVGLDIGKVWVADDGAAVAVWTTPESVEAGAVFAEIGPRMAELSGSRLAAQQQMEGLLAPHRPKEPAWFLATVGVSPDHQGKGLGSAVVLPGVEAAERAGVPAFLETSAPRNLPFYERLGFTVTADVEVPEGPRTWCMTRKPGA
B5: 22125 (protein)
chain: MALPVTALLLPLALLLHAARPEVQLVESGGGLVQAGGSLRLSCAASGRTFSMGWFRQAPGKEREFVAAITYSGGSPYYADSVKGRFTISRDNAKNTVYLQMNSLKPEDTAVYYCAANPTYGSDWNAENWGQGTQVTVSSGTGGGGSGGGGSGGGGSEFDIQMTQSPSSLSASVGDRVTITCKASDHINNWLAWYQQKPGQAPKLLIYGATTLETGVPSRFSGSGSGTDYTLTISSLQPEDFATYYCQQSWNTPWTFGQGTKLEIKRLEDLKNVFPPEVAVFEPSKAEIAHTQKATLVCLATGFYPDHVELSWWVNGKEVHSGVCTDPQPLKEQPALNDSRYCLSSRLRVSATFWQNPRNHFRCQVQFYGLSENDEWTQDRAKPVTQIVSAEAWGRADCGITSASYHQGVLSATILYEILLGKATLYAVLVSALVLMAMVKRKDSRGRAKRSGSGATNFSLLKQAGDVEENPGPTSATMDWIWRILFLVGAATGAHSGPQVQLQESGGGLAQAGGSLRLSCAASGRTFSMGWFRQAPGKEREFVAAITYSGGSPYYASSVRGRFTISRDNAKNTVYLQMNSLKPEDTAVYYCAANPTYGSDWNAENWGQGTQVTVSSGSGGGGSGGGGSGGGGSFEQVQLQQPGAELVKPGASVKMSCKASGYAFSSYWINWMKQKPGQGLEWIGQIYPGDGDTNYNGKFKGRATLTADTSSSTAYMQLSSLTSEDSAVYFCARSITTVVGCAMDYWGQGTSVTVSSTRIQNPDPAVYQLRDSKSSDKSVCLFTDFDSQTNVSQSKDSDVYITDKCVLDMRSMDFKSNSAVAWSNKSDFACANAFNNSIIPEDTFFPSSDVPCDVKLVEKSFETDTNLNFQNLSVIGFRILLLKVAGFNLLMTLRLWSSRAKRSGSGVKQTLNFDLLKLAGDVESNPGPSRGHMTEYKPTVRLATRDDVPRAVRTLAAAFADYPATRHTVDPDRHIERVTELQELFLTRVGLDIGKVWVADDGAAVAVWTTPESVEAGAVFAEIGPRMAELSGSRLAAQQQMEGLLAPHRPKEPAWFLATVGVSPDHQGKGLGSAVVLPGVEAAERAGVPAFLETSAPRNLPFYERLGFTVTADVEVPEGPRTWCMTRKPGA

These molecules were tested on RAJI cells (assay: JNG assay, co-culture with RAJI cells). Conditions: JNG cells expressing construct, co-culture with Raji.
Type: cell-based
In short: (§1)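 Jurkat NFAT-GFP (JNG) cells stably transduced with SARs by lentivirus, with drug selection where the construct carried a resistance gene, then co-cultured with target cells at E:T ~1:2 for ~4–18 h. % GFP-positive cells measured by FACS against parental JNG; +/- to 5+ correspond to ~5–50% GFP-positive.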

Molecule | NFAT-GFP ASSAY: Raji
B1 | 4+ (refer to approximately 5%, 10%, 20%, 30%, 40% and 50% GFP positive cells)
B2 | 5+ (refer to approximately 5%, 10%, 20%, 30%, 40% and 50% GFP positive cells)
B3 | 4+ (refer to approximately 5%, 10%, 20%, 30%, 40% and 50% GFP positive cells)
B4 | 5+ (refer to approximately 5%, 10%, 20%, 30%, 40% and 50% GFP positive cells)
B5 | 4+ (refer to approximately 5%, 10%, 20%, 30%, 40% and 50% GFP positive cells)

These molecules were tested on RAJI-CD19-KO cells (assay: JNG assay, co-culture with RAJI-CD19-KO cells). Conditions: co-culture with Raji-CD19-KO.
Type: cell-based
In short: as §1

Molecule | NFAT-GFP ASSAY: Raji-CD19-KO
B1 | 3+ (refer to approximately 5%, 10%, 20%, 30%, 40% and 50% GFP positive cells)
B2 | 4+ (refer to approximately 5%, 10%, 20%, 30%, 40% and 50% GFP positive cells)
B3 | 5+ (refer to approximately 5%, 10%, 20%, 30%, 40% and 50% GFP positive cells)
B4 | 5+ (refer to approximately 5%, 10%, 20%, 30%, 40% and 50% GFP positive cells)
B5 | 5+ (refer to approximately 5%, 10%, 20%, 30%, 40% and 50% GFP positive cells)

What follows are molecules tested on RS;411 (assay: JNG assay, co-culture with RS;411 cells). Conditions: co-culture with RS411.
Type: cell-based
In short: as §1

Molecule | NFAT-GFP ASSAY: RS411
B1 | 3+ (refer to approximately 5%, 10%, 20%, 30%, 40% and 50% GFP positive cells)
B2 | 4+ (refer to approximately 5%, 10%, 20%, 30%, 40% and 50% GFP positive cells)
B3 | + (refer to approximately 5%, 10%, 20%, 30%, 40% and 50% GFP positive cells)
B4 | 5+ (refer to approximately 5%, 10%, 20%, 30%, 40% and 50% GFP positive cells)
B5 | +/- (refer to approximately 5%, 10%, 20%, 30%, 40% and 50% GFP positive cells)
